This passage reports IC50, inhibition of TGFβ1 activity in HEK-Blue TGFβ cells (QUANTI-Blue OD 620-655 nM) and EC50, 32Dβ cell proliferation (WST1, absorbance 450 nM) results from US20260137759A1.

For one assay, the target named is TGFβ1 (R&D systems) (UniProt P01137). As to the kind of experiment: cell-based or functional assay.
In assay [1] the target is IL2Rβ and common γ chain (on 32Dβ cells). As to the kind of experiment: cell-based or functional assay.

UniProt P01137, sequence (P01137 279-390 limits assumed): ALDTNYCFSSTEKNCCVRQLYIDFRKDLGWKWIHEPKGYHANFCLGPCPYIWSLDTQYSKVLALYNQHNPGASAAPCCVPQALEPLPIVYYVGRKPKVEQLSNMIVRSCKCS

In the assay with TGFβ1 (R&D systems), “TGFR-Fc (R&D Systems) (from UniProt P37173 24-159) (Fc fusion)” displayed an IC50, inhibition of TGFβ1 activity in HEK-Blue TGFβ cells (QUANTI-Blue OD 620-655 nM) of 0.461 nM.

As for “recombinant IL-15 (from UniProt P40933 49-162) (ligand)”, in assay [1], the EC50, 32Dβ cell proliferation (WST1, absorbance 450 nM) was 0.0106 nM.
